The assay has as its target purified RecBCD protein (Plasmid-Safe ExoV, Epicentre) (E. coli) (UniProt P08394). As to the kind of experiment: cell-based or functional assay.
Chain of UniProt P08394 (P08394 2-1180 limits assumed, chain 1 of 3): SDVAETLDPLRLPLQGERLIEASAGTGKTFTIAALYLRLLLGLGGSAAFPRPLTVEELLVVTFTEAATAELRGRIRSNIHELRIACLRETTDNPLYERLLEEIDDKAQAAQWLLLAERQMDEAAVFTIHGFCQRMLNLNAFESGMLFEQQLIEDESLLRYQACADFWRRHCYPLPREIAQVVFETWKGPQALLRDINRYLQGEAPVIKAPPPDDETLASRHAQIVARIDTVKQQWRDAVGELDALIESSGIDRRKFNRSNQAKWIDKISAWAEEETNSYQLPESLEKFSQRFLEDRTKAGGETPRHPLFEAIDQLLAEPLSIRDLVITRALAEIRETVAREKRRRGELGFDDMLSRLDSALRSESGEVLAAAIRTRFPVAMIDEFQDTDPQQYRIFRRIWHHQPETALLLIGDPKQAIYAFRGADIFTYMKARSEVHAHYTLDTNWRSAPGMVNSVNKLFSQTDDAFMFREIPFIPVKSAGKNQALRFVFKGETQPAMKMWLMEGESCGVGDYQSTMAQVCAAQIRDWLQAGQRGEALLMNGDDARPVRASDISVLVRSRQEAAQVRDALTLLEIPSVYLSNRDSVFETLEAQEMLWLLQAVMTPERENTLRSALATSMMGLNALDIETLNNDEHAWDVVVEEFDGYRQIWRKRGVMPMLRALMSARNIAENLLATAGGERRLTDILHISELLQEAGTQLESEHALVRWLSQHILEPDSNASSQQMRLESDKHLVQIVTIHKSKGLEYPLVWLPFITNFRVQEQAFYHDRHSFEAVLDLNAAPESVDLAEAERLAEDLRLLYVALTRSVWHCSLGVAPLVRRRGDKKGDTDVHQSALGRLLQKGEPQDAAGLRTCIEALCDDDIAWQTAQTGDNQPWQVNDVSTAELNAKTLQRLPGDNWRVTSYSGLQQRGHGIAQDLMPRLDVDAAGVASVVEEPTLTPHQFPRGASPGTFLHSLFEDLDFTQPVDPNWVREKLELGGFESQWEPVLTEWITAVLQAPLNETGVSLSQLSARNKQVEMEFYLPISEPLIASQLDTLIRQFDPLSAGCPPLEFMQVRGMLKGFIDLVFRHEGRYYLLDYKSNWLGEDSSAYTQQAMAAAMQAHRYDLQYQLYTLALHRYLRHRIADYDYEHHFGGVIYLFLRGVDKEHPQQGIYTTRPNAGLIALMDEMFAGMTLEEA
Chain of UniProt P08394 (P07648 whole entry, chain 2 of 3, further chain): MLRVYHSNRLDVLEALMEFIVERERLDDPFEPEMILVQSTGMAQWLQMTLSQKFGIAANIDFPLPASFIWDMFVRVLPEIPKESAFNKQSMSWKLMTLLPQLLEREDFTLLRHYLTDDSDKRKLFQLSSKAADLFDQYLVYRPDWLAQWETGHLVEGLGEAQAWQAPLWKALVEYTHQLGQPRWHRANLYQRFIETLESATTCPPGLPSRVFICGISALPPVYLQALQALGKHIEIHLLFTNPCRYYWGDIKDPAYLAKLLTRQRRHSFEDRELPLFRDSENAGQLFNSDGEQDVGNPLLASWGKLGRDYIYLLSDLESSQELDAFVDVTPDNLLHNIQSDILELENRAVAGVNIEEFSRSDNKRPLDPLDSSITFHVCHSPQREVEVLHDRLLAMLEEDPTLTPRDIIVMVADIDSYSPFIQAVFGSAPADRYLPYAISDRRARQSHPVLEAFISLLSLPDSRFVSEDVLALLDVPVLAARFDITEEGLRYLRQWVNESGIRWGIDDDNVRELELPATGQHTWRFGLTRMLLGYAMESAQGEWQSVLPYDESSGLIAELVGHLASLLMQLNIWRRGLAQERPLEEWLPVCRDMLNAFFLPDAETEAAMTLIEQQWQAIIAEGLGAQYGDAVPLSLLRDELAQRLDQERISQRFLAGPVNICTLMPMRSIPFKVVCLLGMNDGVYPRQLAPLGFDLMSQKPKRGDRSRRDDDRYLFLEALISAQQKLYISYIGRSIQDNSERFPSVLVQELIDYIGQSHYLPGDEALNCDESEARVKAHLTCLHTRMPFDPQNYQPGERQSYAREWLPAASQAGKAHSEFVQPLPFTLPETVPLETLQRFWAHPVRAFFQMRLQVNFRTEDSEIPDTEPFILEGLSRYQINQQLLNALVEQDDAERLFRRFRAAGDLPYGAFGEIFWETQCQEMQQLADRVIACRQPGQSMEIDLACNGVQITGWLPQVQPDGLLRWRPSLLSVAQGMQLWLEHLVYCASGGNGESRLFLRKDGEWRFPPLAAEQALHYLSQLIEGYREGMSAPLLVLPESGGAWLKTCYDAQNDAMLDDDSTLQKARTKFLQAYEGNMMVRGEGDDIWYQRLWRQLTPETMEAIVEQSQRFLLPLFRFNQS
Chain of UniProt P08394 (P04993 whole entry, chain 3 of 3, further chain): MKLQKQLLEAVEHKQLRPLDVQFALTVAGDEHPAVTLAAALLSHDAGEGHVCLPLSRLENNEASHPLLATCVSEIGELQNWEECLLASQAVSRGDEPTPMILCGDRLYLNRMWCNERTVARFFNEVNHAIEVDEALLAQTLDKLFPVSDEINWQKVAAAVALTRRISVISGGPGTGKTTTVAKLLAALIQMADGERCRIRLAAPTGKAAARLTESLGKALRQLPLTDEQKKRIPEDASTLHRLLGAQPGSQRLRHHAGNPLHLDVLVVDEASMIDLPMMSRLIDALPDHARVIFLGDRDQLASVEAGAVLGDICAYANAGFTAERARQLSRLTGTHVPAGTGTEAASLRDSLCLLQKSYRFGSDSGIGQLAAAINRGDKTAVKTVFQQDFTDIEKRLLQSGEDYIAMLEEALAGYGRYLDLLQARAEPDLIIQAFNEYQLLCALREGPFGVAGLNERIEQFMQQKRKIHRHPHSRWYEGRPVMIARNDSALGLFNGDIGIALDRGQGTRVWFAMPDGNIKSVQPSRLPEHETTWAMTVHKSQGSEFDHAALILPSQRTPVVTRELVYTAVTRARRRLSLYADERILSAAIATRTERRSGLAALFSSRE

Regarding “GamS (short form of the bacteriophage lambda Gam protein, expressed from pLDE136, partially purified MonoQ pool) (from UniProt P03702 1-98)”, the specific activity of GamS in the Gam-mediated RecBCD inhibition assay is 160 to 200 U/µg.

(Values after patent publication US20020168706A1.)
